This test addresses stratifin (14-3-3 σ) (UniProt P31947). Description: anti-myc IP, anti-stratifin blot. The settings on record: reference: wild-type Pkp-3-myc; sites S285.

As to “plakophilin-3 (from UniProt Q9Y446) Pkp-3-myc S285A”, the “binding against the reference” value was “lost”.
